Reference: US20240092924A1

Biological target: wild-type human sodium taurocholate cotransporting polypeptide (human NTCP) (human) (UniProt Q14973)
Experiment: cell-based or functional assay

Chain of wild-type human sodium taurocholate cotransporting polypeptide (human NTCP) (human) (Q14973 whole entry): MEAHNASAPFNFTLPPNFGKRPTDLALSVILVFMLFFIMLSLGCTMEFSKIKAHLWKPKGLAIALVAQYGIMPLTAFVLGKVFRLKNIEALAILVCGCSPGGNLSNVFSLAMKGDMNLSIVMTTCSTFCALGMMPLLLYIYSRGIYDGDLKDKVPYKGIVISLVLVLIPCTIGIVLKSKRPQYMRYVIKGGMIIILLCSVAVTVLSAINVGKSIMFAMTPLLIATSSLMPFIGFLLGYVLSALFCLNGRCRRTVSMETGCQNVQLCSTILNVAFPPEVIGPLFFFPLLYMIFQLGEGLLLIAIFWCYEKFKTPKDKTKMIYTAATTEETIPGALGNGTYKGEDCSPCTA

Q: What does the source list for preS1 peptide?
A: [3H]-taurocholic acid uptake by HepG2-human NTCP cells, at 1000 nM (fraction of uptake remaining): 0.05; inhibition of [3H]-taurocholic acid uptake by human NTCP-expressing HepG2, at 100 nM: 60%; inhibition of [3H]-taurocholic acid uptake by human NTCP-expressing HepG2, at 1000 nM: 96%; suppression of bile acid uptake into a hepatocyte cell line, at 1000 nM (FIG. 3 legend): < 90%
